Molecular target: human high affinity receptor for IL2 (IL2R) (human) (UniProt P01589)
Assay: cell-based or functional assay

Chain of UniProt P01589 (P01589 22-272, chain 1 of 3): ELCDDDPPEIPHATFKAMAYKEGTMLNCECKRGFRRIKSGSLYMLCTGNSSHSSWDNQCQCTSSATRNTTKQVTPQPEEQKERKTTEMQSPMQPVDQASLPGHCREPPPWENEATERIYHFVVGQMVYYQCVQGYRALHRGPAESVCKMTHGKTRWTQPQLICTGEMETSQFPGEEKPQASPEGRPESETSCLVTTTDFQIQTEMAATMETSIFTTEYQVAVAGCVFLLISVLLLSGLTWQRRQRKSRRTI
Chain of UniProt P01589 (P14784 27-551, chain 2 of 3, further chain): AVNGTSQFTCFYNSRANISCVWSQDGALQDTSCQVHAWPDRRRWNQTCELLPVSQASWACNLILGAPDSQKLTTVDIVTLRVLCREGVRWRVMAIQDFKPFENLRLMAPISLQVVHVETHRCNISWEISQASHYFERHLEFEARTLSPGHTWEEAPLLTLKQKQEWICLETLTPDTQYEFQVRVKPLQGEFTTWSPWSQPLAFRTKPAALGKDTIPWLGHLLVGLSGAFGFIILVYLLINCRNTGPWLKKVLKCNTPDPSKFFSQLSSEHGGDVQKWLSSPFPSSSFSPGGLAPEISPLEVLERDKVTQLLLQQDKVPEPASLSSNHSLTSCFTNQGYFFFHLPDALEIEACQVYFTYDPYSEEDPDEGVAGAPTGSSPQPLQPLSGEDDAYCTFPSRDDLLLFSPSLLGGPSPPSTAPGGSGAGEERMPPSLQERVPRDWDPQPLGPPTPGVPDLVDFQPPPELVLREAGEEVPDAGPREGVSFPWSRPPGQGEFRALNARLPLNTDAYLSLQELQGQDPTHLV
Chain of UniProt P01589 (P31785 23-369, chain 3 of 3, further chain): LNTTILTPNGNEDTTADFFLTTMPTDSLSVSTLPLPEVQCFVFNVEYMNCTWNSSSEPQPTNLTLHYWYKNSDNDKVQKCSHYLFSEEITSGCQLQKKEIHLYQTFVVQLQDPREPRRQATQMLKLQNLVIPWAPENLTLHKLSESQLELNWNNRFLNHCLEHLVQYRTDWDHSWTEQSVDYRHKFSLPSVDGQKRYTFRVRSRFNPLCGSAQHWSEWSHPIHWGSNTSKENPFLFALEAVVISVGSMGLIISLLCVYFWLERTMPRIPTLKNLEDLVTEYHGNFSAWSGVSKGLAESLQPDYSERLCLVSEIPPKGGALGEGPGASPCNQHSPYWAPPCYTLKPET

- M1, fresh lymphocytes analyzed by FACS, IL2-Bax 1 µg (Experiment No. 1): 17.5
- M1, fresh lymphocytes analyzed by FACS, IL2-Bax 5 µg (Experiment No. 1): 24.3
- M1, fresh lymphocytes analyzed by FACS, IL2-Bax 10 µg (Experiment No. 1): 42.1
- M1 - 2, fresh lymphocytes analyzed by FACS, IL2-Bax 1 µg (Experiment No. 1): 13.5
- M1 - 2, fresh lymphocytes analyzed by FACS, IL2-Bax 5 µg (Experiment No. 1): 20
- M1 - 2, fresh lymphocytes analyzed by FACS, IL2-Bax 10 µg (Experiment No. 1): 35
- M2, fresh lymphocytes analyzed by FACS, IL2-Bax 1 µg (Experiment No. 1): 4
- M2, fresh lymphocytes analyzed by FACS, IL2-Bax 5 µg (Experiment No. 1): 4.3
- M2, fresh lymphocytes analyzed by FACS, IL2-Bax 10 µg (Experiment No. 1): 9.1
- UL + UR, fresh lymphocytes analyzed by FACS, IL2-Bax 1 µg (Experiment No. 2): 10.5
- UL + UR, fresh lymphocytes analyzed by FACS, IL2-Bax 10 µg (Experiment No. 2): 31.6
- UL, fresh lymphocytes analyzed by FACS, IL2-Bax 1 µg (Experiment No. 2): 4.98
- UL, fresh lymphocytes analyzed by FACS, IL2-Bax 10 µg (Experiment No. 2): 14.7
- UR, fresh lymphocytes analyzed by FACS, IL2-Bax 1 µg (Experiment No. 2): 5.56
- UR, fresh lymphocytes analyzed by FACS, IL2-Bax 10 µg (Experiment No. 2): 16.8
- apoptotic cells in fresh human lymphocytes treated with IL2-Bax (FACS): 2 to 14%
- increase in the percentage of the apoptotic-cell population (sub-G1, FACS), HUT102 cells, highest concentration tested: 3.6 fold
Substance: IL2-Bax chimeric protein
